Reference: the DeepSol protein solubility set

Test: soluble on expression in E. coli; label from the status in PepcDB or PDB records

| Sequence | soluble on expression in E. coli |
| --- | --- |
| DRHVDTHSEVLIFEVIPADDFLQQQLQITVQDRVWHVKRVRYRKQKPMALEETWMPLALFPDLTWQVMENSKYHFIEEVKKMVIDRSEQEIIPLMPTEEMSRLLNISQTKPILEKVSRGYLVDGRVFEYSRNAFNTDDYK | not soluble |
| MGSDKIHHHHHHMGMILNGYLEVINHLQQLPLALILIFNLKIMKQIIYVFLLTVLSSCDSYLSKVPSPSTSAPINNVEQLVAIYDNATAFINETNPFACYSNDDADLTAELYKADPSAFAISSTVFYNILHTAGIASQASDGLWNGEYSNIFKANTIINNVDKVTGDESEKIKLKCNAHFLRAYSYFVLAQYYCLPYCEANKNALGLPKRLNTDFEESIARVSLDEIYQLILDDLEIAAVTPDKSVNPNFPWRICQATVNALLSRVYLTMGNYKEAQATAEKALEGAPELLDFNELGYAPVESYPEMEGLPAQDVYNCETHKWTTIKYLYWKEFLFPRFTYARSQWIIPSDDLVSLYDQQNDRRFKLFFVEHGNRRMGVPYEAYRYNQFYDGRYIISGLTTAEMLLNKAEAQIRQGMWQEGLKTLDVLREKRYEAGTYISLSAGNQSEALSIVLAERRREMPFSMRIPDIKRYGVNEILEDDVTVVKNFFEISMSEVFIDKPKTYTIPSNSLLWAMPINDVEIGSSNGAIQQNRYE | not soluble |
| MVKLRIGYPEDPDYQERLEEFEARIARGEKIEPGDWMPAEYRRQLIRMISQHAHSEWVGMLPEGAWITRAPSLRRKLILLAKVQDEAGHGQYLYHAAETLGITREEMVEALLSGKAKYSNIFNYPTLTWADVAIIGWLVDGMAIKNQTMLAQCSYGPYSRAMVRICAEETFHHKQGKEAVLLYAKGSPKQRRMVQDALNRWWWPTLMMAGPHDTDSPHTPLLLRWGIKTKTNDQIRQEFLNEHVPELLDAGLSIPDPDLRYDEKTGNWIHGPIPWDEFWKVIGGEGPMNRHRLQGRRRAHQEGRWVREAMEAYAKRRLAQAAD | soluble |
| MGSDKIHHHHHHMWIEQRLWTPEGGWTVTETSPGKASLVLYFAAPGALTPESILADLRVAYGNAPILGCTTGGEILGPEVLDDSIVVSALGFDKASVRMASRDLSDVSQSRETGAALARELAGEDLRAIFILSDGTKVNGDSLVAGCLSAVTSDVVVTGGLAGDGARFQTTAVGCSDAMRPGRVAAVGFYGDSLAIGHGSFGGWDEFGPPRTITRSAANVLYELDGEPALDLYKRYLGEEAQGLPGSALLFPLSIRPSGDDAGAEVVRTIVGIDEEAKSMIFAGDVPTGHLARLMRGNFDNLVDGAGRAAEAAAAIKGPSLGLLVSCIGRKLLMGQRIAEEVEIVSDVLGKEASLMGFYSYGEISPHGFTGKCELHNQTMTITTISER | not soluble |
| MGSDKIHHHHHHMYANASSENGAVNVSDDGPPLRIIHCFRSPVGGVFRHVRDLIEEHVRQGHKVGIVCDSSTGGAHEERLFAQITPMLELGLTRLPIRRSISPGDLLALWKSYKHIKSLRPDILHGHSAKGGALARLIGSLLRANRYRVARLYSPHGGSLHYARNSLKGQLFLRLERFQEHFTDALCFVCNFEQETYETKVGKPRTRTAMIYNGVQESEFETVPPRDGAARFLYIGMLRDLKGPDVFIRAFAKMERSIGQPMSGVIVGDGPDRDKYAAMIATAGLSRRISMHAAMPARQAFELATTVVVPSRAEAMPYIVLEALAAGKTVIASHVGGIPEVLGEDSEALVPAGDADALARTMVKDAADADWAQRVMPHPDSFKAKFSTPVMADEMMKLYRDLLTT | not soluble |
| MGSDKIHHHHHHMKVICITQARMGSSRLPGKVLKIIGTRPMLEYHVRRVAKSKLINHHIIATSNQENDLPIVEYCQQNNIDYYRGNETDVLGRFYETALSVHAEPDDIIIRLTGDCPLICPQLIDDAIKLQFSGESQQYTHVSLAYFPRGFDVEVFRMRSLSEAYFKALAPAQREHVTLYLYSKPDALIVPVTLHGNPSWSHFRLCVDEQDDFLLVEQLICRLGEQWLDAGPRQICELLEGNPQLVTINAHIHQRTAH | not soluble |
| KAPFLILMHRNPDPDAMASAMALKTIFDKWGVSSEIAYGGKIGYDENKAMVNLLSIKLNPIDEINLSRYCSIAVVDSSSSKTLPIDVEDSKLSVIIDHHNDSDIVAKYMDILPEIGATATILTKYLLELEIAPNRDLATALYYAITSDTNYFKRKTSKKDFEAASYLQGLMDPKVLEMIENPDM | not soluble |
| GPGSMMNLAPDTITIGAQRNTELLLLEYLRSTNPHIHALWQRHPNKDNDASSSSAASSPSKDTRGASGSDVGDANASSSSAASALRESFDYTEPRLYRAAHVHFLMENLSVAPQGFSSLYPSRPWIVYWALQAADVLNSMESEVLHRTPPSAIVAFLHSCLSVDHTCQAEVNNRLAAAATSARGAPEGKDPHVTGTPLESSTTSVTLERDSADATSATLMPPVEDAAEVAEGPSRPVMGFAGGATHQEPHIASSYAACCALAMLSWYGDGAPLRQLPRAAIKRWLLTLRNEDGSFRVHGGGESDIRASYCAAVITTLLGLDDPTTFDGEAGRCEFVDDVRDVPVLTLQTARFVAACQTHEGGFTCSPTASEAHGAYTQCGLAALLLMKQPHMVHQASLRRWLAARQLNYEGGFNGRTNKLVDSCYSHWIGASHVLLRTVEAYTKCFTEVPTTHSRNGDGTGGCEDGYREDVDCTPSARCLRAREVVLLDHAQLLDAKMIHASADDAWDRAESAHLTRLGVVDQFLGADDAVLRSAEEKRTAVTALYERLLESRLAAVRSCDGNGDAAAGDVQGSLEAWRARQAFLYADVGDFYFNQRKLQDYVLRCCQDSEIGGLMDKPQTAHDGYHTCYSLSGLSAAQNLQYRTHVTAADAAYPSTYLERAFARSYLPGRESGSTSGNEEGSCGVVLGLPNTSAAAESMLLRTTSPIFNIHQSRVLSALRAWSVKAFV | not soluble |
| MKIIAYGARVDEIQYFKQWAKDTGNTLEYHTEFLDENTVEWAKGFDGINSLQTTPYAAGVFEKMHAYGIKFLTIRNVGTDNIDMTAMKQYGIRLSNVPAYSPAAIAEFALTDTLYLLRNMGKVQAQLQAGDYEKAGTFIGKELGQQTVGVMGTGHIGQVAIKLFKGFGAKVIAYDPYPMKGDHPDFDYVSLEDLFKQSDVIDLHVPGIEQNTHIINEAAFNLMKPGAIVINTARPNLIDTQAMLSNLKSGKLAGVGIDTYEYETEDLLNLAKHGSFKDPLWDELLGMPNVVLSPHIAYYTETAVHNMVYFSLQHLVDFLTKGETSTEVTGPAK | soluble |
| MGSDKIHHHHHHLNTLKTNAMEIFKQAVSTLNNPEVQGWKQQGGKVVGYFYSYIPEELITAAGLLPYKIRGIGSPGAAMADKYFTHNVCSLVRDTFELVLKGECDFLDGVINFNGCDHIRRISDNWQSLENNPCFHFLVLPKKVGKEQTERYREELVSLKASIEKRFNLVISEDKLKEAIRLHNKKRQLQRRLYELKKRENPPLSGAETLTVMIAGTVMPVARYNRLLAELIDELSISEGKKPNARLMLIGGELDNPELLKILESQGGMVVSDTMALGAREIACDVSETEDGLTALARYHMEDKPPCPRLYGTFQERFDFIRKTAREYQVDGVISLRFLLCDIWGFEQNDIAEILRTEKLPYLKLETEYALTNAGQLKTRVQAFVETLGEV | not soluble |
| MGSDKIHHHHHHMPPRASERSQLRGDENFVHAAHHELYNATQRRNLTKATTTIRTKRLNVTAEMPDWEAVREAGSGIKRDVGQRLDELLVQFEEAVTARGGHVHWARDAKEAGDIVTKLVEETGEKNVVKIKSMATMEIDLNNRLREAGISARETDLAELIVQLGKDKPSHILVPAIHRNRAEIRDIFIREMPNTDDSLSSEPAELAEASRSFLREQFMKAKVAISGANFGIAETGTVTIMESEGNGRMCLTLPETLISVMGIEKIIPTFQDLEVFLQLLPRSSTGERQAPYVSTWSGVTEGDGPKNFHIVLVDNGRTAVLSDEIGREALKCIRCSACLNVCPVYERAGGHAYGSTYPGPIGAILSPQMTGIKNKHDPNAYLPYASSLCGRCNEVCPVKIPFTDILLELRHKKIQTDAPKIEKAMMGAMQLAWGNSTMWNMITRMVFMGRIMGGSNGKITHLPSFLAGWTDVRDTAVPPKKSFRQWFETEEAQQLLADARRDGIHPNNPEVNQKKEN | not soluble |
